Values joined by “and” are separate entries in the source; they are usually repeats but may differ in a detail not shown here. Equal values may be shown once.
Experiments:
[1] = target: the molecule itself; assay: SPR; His-EspA amine-coupled (EDC-NHS, 10 mM sodium acetate pH 4.0) to a planar polyethylene glycol/carboxyl sensor slide; analyte perfused in PBST at 50 µl/min; Reichert SR7500DC
EspC His-Middle segment = target: T1, EspC His-Middle segment (enteropathogenic Escherichia coli (EPEC), UniProt Q9EZE7 382-708); assay: as above; settings: both partners purified
T1 construct: also called Middle fragment; source: E. coli BL21(D3)pLysS, pRSET-A, purified (Ni-NTA agarose); not shown: 6xHis, N-terminal, kept
T1 sequence: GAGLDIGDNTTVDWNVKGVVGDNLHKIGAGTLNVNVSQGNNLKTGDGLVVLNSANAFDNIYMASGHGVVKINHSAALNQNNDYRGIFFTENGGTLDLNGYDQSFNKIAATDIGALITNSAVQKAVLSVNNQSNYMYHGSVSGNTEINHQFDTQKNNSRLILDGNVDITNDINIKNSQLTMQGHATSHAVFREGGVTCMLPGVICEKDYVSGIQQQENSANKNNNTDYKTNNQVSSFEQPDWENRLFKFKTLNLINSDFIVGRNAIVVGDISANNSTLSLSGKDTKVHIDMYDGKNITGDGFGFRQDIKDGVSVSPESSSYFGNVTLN

EspCS256I = EspCS256I (enteropathogenic Escherichia coli (EPEC), UniProt Q9EZE7 54-1018, S256I); assay: pull-down; settings: both partners purified
His-EspC = target: T2, His-EspC (enteropathogenic Escherichia coli (EPEC), UniProt Q9EZE7 55-1032); assay: SPR; His-EspC coupled by its His tag and EDC-NHS on a nickel-nitrilotriacetic acid sensor slide; His-EspA or His-EspA/His-EspD perfused in PBST at 50 µl/min; Reichert SR7500DC; settings: both partners purified
T2 construct: also called whole EspC passenger domain tagged with 6xHis; whole EspC protein (SPR); source: E. coli BL21(D3)pLysS, pRSET-A, purified (Ni-NTA agarose); not shown: 6xHis, N-terminal, kept
T2 sequence: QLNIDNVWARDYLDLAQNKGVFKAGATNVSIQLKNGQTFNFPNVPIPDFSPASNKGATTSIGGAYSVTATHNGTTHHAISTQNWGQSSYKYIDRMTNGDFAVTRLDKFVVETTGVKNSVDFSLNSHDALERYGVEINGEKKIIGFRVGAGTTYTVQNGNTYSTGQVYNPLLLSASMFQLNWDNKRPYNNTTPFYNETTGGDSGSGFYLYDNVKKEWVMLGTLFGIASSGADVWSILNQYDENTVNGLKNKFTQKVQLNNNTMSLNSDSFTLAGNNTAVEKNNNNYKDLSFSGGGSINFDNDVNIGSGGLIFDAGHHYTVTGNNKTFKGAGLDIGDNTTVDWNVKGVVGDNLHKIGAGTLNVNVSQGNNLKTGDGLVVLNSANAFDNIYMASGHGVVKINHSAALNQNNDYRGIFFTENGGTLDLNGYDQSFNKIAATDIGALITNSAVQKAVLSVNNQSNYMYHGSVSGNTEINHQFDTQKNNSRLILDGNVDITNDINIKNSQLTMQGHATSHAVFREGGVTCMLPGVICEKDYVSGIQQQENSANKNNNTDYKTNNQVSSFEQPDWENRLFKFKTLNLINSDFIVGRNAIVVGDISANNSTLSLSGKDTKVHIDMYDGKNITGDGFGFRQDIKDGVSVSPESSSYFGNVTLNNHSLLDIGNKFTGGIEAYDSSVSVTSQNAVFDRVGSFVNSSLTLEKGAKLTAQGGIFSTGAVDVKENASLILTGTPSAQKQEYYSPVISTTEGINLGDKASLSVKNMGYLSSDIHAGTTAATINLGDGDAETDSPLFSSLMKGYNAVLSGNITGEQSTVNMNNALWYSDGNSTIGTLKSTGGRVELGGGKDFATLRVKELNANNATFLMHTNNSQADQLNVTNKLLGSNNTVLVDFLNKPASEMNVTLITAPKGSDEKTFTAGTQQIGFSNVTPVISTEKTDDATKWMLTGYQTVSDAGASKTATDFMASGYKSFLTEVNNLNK

B1: His-EspA (natural protein)
chain: MDTSTTASVASANASTSTSMAYDLGSMSKDDVIDLFNKLGVFQAAILMFAYMYQAQSDLSIAKFADMNEASKESTTAQKMANLVDAKIADVQSSSDKNAKAQLPDEVISYINDPRNDITISGIDNINAQLGAGDLQTVKAAISAKANNLTTTVNNSQLEIQQMSNTLNLLTSARSDMQSLQYRTISGISLGK
notes: also called EPEC secreted protein A
Kd [1]: 2.64 nM | Kd (EspC His-Middle segment): 3.45 nM and 3.43 nM | binding result (EspCS256I): binds | Kd (His-EspC): 25.1 nM
